Tests used:
Assay in all cases: pull-down
[1] = target: T1, GLABRA3 (GL3), recombinant GST or His fusion protein (Arabidopsis, UniProt Q9FN69 1-637)
T1 sequence: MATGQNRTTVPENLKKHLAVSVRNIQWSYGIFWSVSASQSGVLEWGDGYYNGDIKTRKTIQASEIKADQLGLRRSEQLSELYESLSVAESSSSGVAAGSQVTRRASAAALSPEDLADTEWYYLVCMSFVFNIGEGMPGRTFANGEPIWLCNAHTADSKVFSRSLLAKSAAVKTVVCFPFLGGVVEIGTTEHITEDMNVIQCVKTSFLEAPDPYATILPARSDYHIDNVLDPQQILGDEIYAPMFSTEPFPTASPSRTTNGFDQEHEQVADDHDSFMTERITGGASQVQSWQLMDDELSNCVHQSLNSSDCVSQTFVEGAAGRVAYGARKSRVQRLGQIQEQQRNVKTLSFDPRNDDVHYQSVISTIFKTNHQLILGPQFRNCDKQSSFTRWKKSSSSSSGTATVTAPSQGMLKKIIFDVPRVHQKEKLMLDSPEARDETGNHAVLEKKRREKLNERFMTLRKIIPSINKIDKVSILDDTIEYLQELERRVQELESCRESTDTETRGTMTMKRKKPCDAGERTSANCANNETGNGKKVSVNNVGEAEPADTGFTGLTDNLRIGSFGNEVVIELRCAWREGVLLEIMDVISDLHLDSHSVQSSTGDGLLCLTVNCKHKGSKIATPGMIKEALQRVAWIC

[2] = target: T2, ENHANCER OF GLABRA3 (EGL3), recombinant GST or His fusion protein (Arabidopsis, UniProt Q9CAD0 1-596)
T2 sequence: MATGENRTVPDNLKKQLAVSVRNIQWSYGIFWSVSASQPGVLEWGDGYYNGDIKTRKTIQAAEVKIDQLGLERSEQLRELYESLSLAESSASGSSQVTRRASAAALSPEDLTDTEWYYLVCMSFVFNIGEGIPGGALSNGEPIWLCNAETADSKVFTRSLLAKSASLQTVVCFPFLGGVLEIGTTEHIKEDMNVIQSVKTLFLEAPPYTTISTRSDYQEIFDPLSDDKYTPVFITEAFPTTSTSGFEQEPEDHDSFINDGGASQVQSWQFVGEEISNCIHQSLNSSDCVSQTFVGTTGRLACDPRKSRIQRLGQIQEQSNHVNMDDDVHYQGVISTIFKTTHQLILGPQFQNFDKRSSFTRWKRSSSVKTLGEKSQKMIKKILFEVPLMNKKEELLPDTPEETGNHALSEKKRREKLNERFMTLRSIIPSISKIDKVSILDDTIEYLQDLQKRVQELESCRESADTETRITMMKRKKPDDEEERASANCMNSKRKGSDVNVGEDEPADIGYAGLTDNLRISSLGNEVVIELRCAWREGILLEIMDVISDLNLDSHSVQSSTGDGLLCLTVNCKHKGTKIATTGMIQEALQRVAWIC

[3] = target: T3, GLABRA1 (GL1), recombinant GST or His fusion protein (Arabidopsis, UniProt P27900 1-228)
T3 sequence: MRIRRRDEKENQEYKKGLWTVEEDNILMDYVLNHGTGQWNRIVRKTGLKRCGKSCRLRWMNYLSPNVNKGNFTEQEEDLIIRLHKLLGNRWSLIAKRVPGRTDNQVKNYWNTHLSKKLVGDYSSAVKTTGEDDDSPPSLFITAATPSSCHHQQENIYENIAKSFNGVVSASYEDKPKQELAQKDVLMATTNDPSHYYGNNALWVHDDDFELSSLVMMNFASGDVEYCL

Measured: binding result

B1: TRIPTYCHON (TRY), recombinant GST or His fusion protein (natural protein)
chain: MDNTDRRRRRKQHKIALHDSEEVSSIEWEFINMTEQEEDLIFRMYRLVGDRWDLIAGRVPGRQPEEIERYWIMRNSEGFADKRRQLHSSSHKHTKPHRPRFSIYPS
binds: all assays above
